Laboratory results reported in PMC3281842, “Crystal Structure of TDRD3 and Methyl-Arginine Binding Characterization of TDRD3, SMN and SPF30” (PLoS ONE, 2012).

What was measured:
[1] = target: PIWIL1-R4me1 (Homo sapiens) (UniProt Q96J94); details: cited from earlier work
[2] = target: PIWIL1-R4me2a (Homo sapiens) (UniProt Q96J94); details: cited from earlier work
[3] = target: PIWIL1-R4me2s (Homo sapiens) (UniProt Q96J94); details: cited from earlier work
H3R17me2a = assay: ITC; 20 mM Tris pH 8.0, 200 mM NaCl; 25°C; one-site binding model
H3R2me2s = assay: fluorescence polarisation; fluorescein-labeled peptides; 20 mM Tris pH 7.5, 50 mM NaCl, 1 mM DTT, 0.01% Triton X-100; 25°C; one-site binding model; Kd the average of three independent measurements
H3R2me2a = assay: as above

SND1 650-910, sequence (Q7KZF4 650-910): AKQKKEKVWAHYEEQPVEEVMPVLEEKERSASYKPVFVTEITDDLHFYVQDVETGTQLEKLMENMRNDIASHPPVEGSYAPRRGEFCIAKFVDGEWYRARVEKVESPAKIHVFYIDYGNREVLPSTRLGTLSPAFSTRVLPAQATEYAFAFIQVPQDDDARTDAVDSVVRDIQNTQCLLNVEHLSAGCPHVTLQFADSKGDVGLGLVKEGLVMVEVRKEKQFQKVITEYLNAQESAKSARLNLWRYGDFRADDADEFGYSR

| Kd (H3R17me2a) [µM] | Kd (H3R2me2s) [µM] | Kd (H3R2me2a) [µM] | Substance | Kd [1] [µM] | Kd [2] [µM] | Kd [3] [µM] |
| --- | --- | --- | --- | --- | --- | --- |
|  |  |  | SND1 650-910 (from UniProt Q7KZF4) | 19 | 42 | 10 |
| > 1000 | > 500 | > 500 | TDRD3 (aa 520–633) (from UniProt Q9H7E2 520-633) (domain or fragment) |  |  |  |
